Data as given in article PMC3722453, “N-truncated amyloid β (Aβ) 4-42 forms stable aggregates and induces acute and long-lasting behavioral deficits” (Acta Neuropathologica, 2013).

Legend:
[1] = 1D 1H NMR monomer consumption assay; assay type: physicochemical; conditions: 40 μM peptide, phosphate buffer 20 mM pH 7.2, 25 mM NaCl; after 14 h of incubation at 37 °C; methyl and aromatic 1H signals normalised to DSS
Procedure: 1D ^1H NMR spectra of the five different Aβ peptides were measured at 5 °C at 400 MHz ^1H Larmor frequency. The samples contained 40-μM peptide in phosphate buffer (20 mM, pH 7.2) with 25-mM NaCl. The aggregation propensity of the Aβ variants were then studied through real-time 1D ^1H NMR experiments at 37 °C continued for 14 h at 1-h intervals. The integrated intensity of ^1H peaks at two regions (0.50–1.05 ppm, 6.50–8.00 ppm), after chemical shift using DSS ([…]) as a reference standard, was then calculated. After normalization by the integrated intensity of the DSS peak at 0 ppm, the relative intensity of the peptide ^1H peaks was used to probe peptide monomer consumption during the early phases of peptide aggregation.

[2] = Dynamic light scattering (DLS) of peptide supernatants; assay type: physicochemical; conditions: DLS at 20 °C, 0.2 mg/mL, phosphate buffer 20 mM pH 7.4, 25 mM NaCl; after 24 h at 37 °C without agitation; supernatant after 16,000g 15 min
Procedure: DLS experiments were performed at 20 °C on a DynaPro Titan (Wyatt Technology Corp., CA) instrument with a scattering angle of 90°. The samples were centrifuged at 16,000g for 15 min, and then the supernatant was taken for DLS measurements. The “monomeric” samples were prepared freshly in phosphate buffer (20 mM, pH 7.4) containing 25 mM NaCl at a peptide concentration of 0.2 mg/mL. The aggregated samples were prepared after incubation at 37 °C for 24 h, without further promotion of aggregation by agitation. The size distribution was determined by a constrained regularization method. The reported scattering intensities are from three separate measurements of the same sample.

[3] = Far-UV circular dichroism (CD) spectroscopy; assay type: physicochemical; conditions: 0.2 mg/mL, phosphate buffer 20 mM pH 7.2, 20 °C, monomeric state
Procedure: Samples of 0.2 mg/mL peptide concentration in phosphate buffer (20 mM, pH 7.2) were prepared. The far-UV CD measurements were conducted on a Chirascan CD spectrometer, with a 1-mm path length quartz cell, 1-nm bandwidth and 8-s collection time for each point at 0.5 nm steps between 190 and 260 nm. The buffer spectrum was also measured and subtracted from the spectra of Aβ peptides. The temperature-dependence of secondary structure was studied through far-UV measurements at three different temperatures, 20, 30 and 40 °C. The reversibility of temperature-induced changes was checked with an additional CD spectrum measured after cooling down from 40 to 20 °C. The CD spectrum of the cooled sample was taken after 5 min of equilibration at 20 °C. The 0.2 mg/mL Aβ samples in phosphate buffer (20 mM, pH 7.2) containing 25 mM NaCl were incubated at 37 °C for 3 days with gentle stirring.

C57BL/6 J wildtype mice = test: Y-maze working memory after intracerebroventricular injection of soluble Aβ; assay type: in vivo, mouse; conditions: 50 pmol in 1 μL icv, male C57BL/6 J mice 12-week old, n = 6 per group, Y-maze on day 4, 5-min session
Procedure: Male C57BL/6 J mice (12-week old, Janvier, Le Genest-St-Isle, France; n = 6 per treatment group) were housed five to six per cage with free access to food and water, and were kept in a constant environment (22 ± 2 °C, 50 ± 5 % humidity, 12-h light cycle). Under anesthetization, freshly prepared Aβ peptides (50 pmol in 1 μL; 0.1 M phosphate-buffered saline (pH 7.4)) or vehicle (0.1 M phosphate-buffered saline) were injected into the right ventricle, with stereotaxic coordinates from the bregma (AP −0.22, L −1.0 and D 2.5 in mm). Intracerebroventricular (icv) injections were made using a 10-μl Hamilton microsyringe fitted with a 26-gauge needle. Four days following icv infusion of Aβ peptides, working memory was assessed using the Y-maze test.
Immediate spatial working memory performance in male C57BL/6 J wildtype mice (12-week old, Janvier, Le Genest-St-Isle, France; n = 6 per treatment group) was assessed by recording spontaneous alternation behavior in a Y-maze as described previously. The Y-maze task was carried out on day 4 after soluble Aβ application. The maze was made of opaque plexiglas and each arm was 40-cm long, 16-cm high, 9-cm wide and positioned at equal angles. Mice were placed at the end of one arm and allowed to move freely through the maze during a 5-min session. The series of arm entries were recorded visually and arm entry was considered to be completed when the hind paws of the mouse were completely placed in the arm. Alternation was defined as successive entries into the three arms on overlapping triplet sets. The percentage alternation was calculated as the ratio of actual (total alternations) to possible alternations (defined as the number of arm entries minus two), multiplied by 100.

primary cortical neurons = test: Calcein-AM cell viability assay; assay type: cell-based, Wistar rat; conditions: for effect on cell viability: 24 h incubation with freshly prepared peptide at different concentrations, calcein-AM fluorescence; for toxicity profile compared to vehicle control: ANOVA with Bonferroni multiple comparisons
Procedure: Cortical neurons from embryonic day 16–17 Wistar rat fetuses were prepared as previously described. In brief, dissociated cortical cells were plated at 50,000 cells/well in 48-well plates precoated with 1.5 mg/mL polyornithine (Sigma). Cells were cultured in a chemically defined Dulbecco’s Modified Eagle’s/F12 medium free of serum (Gibco) and supplemented with hormones, proteins and salts. […] At 6 DIV, the medium was removed and cortical neurons were incubated for 24 h with vehicle (cell culture medium) or Aβ peptides (dissolved in cell culture medium) at the indicated concentrations.
Following a 24-h incubation of primary cortical neurons with Aβ peptides, cell viability was determined using a calcein-AM assay (Invitrogen, Molecular Probes). Briefly, cells were washed twice with PBS and incubated to protect from light for 30 min at room temperature in the presence of 2 μM calcein-AM solution prepared in PBS. Cells were then washed twice with PBS and incubated for 15 min at room temperature in PBS containing 1 % Triton X-100 (v/v). The level of calcein fluorescence was monitored by fluorescence emission at 530 nm after exciting at 485 nm, using a Fluostar microplate reader (BMG-Labtechnologies, France).

[4] = SDS-PAGE Western blot of Aβ peptides (stable aggregates); assay type: physicochemical; conditions: 1 μg peptide, reducing conditions, antiserum 24311; for higher molecular weight oligomers on SDS-PAGE after aging: after 1 and 3 days of aging
Procedure: Lyophilized Aβ peptides were dissolved in 10-mM NaOH at a concentration of 1 mg/mL, aliquoted in 50 μL volumes, flash-frozen in liquid nitrogen and stored at −80 °C until use. For Western blot analysis under reducing conditions, 1 μg peptides were loaded on 4–12 % VarioGels (Anamed), transferred to 0.45 μm nitrocellulose membranes and detected using the primary antiserum 24311 (pan-Aβ, 1:500) or monoclonal antibody 4G8 (Aβ17-24, Signet; 1:500). For Western blotting of mouse brain, whole brain SDS lysates were used. Running and transfer buffers were applied according to the manufacturer. The blots were developed using enhanced chemiluminescence according to the manufacturer (Roth). Horse radish conjugated swine anti-rabbit antibody was used as a secondary antibody (1:3,000, Dianova).

[5] = Transmission electron microscopy (TEM) of aggregates; assay type: physicochemical; conditions: 0.1 mg/mL, HEPES 25 mM pH 7.4, 50 mM NaCl, 3 days at 37 °C with gentle stirring
Procedure: Peptide samples of 0.1 mg/mL concentration in HEPES buffer (25 mM, pH 7.4, 50 mM NaCl) were incubated at 37 °C with gentle stirring. After 3 days of incubation, samples were diluted, deposited onto carbon-coated copper mesh grids and negatively stained with 2 % (w/v) uranyl acetate. The excess stain was washed away, and the sample grids were allowed to air-dry. The samples were then viewed with a 120-kV transmission electron microscope.

Substance | loss of initial 1H NMR signal intensity (monomer consumption) [1] | hydrodynamic radius of small (main) aggregates [2] | secondary structure by far-UV CD spectrum [3] | working memory (Y-maze alternation rate) (C57BL/6 J wildtype mice) | effect on cell viability (primary cortical neurons) | toxicity compared with Aβ4-40 at 5 μM (primary cortical neurons; 24 h incubation, 5 μM, calcein-AM) | toxicity profile compared to vehicle control (primary cortical neurons; 24 h incubation, calcein-AM) | higher molecular weight oligomers on SDS-PAGE after aging [4] | species on SDS-PAGE, freshly dissolved peptides [4] | aggregate morphology by TEM [5]
Aβ1-42: full-length amyloid β 1-42, purchased from PSL [reference compound] | around 5% | 5–10 nm | unstructured in the monomeric state | performed at chance level and showed a significant and robust deficit in working memory | dose-dependent reduction in cell viability | more potent than Aβ4-40 | strongest toxic effect | higher molecular weight oligomers in addition | monomers and aggregates most likely representing trimer/tetramers | –
Aβ4-38: amyloid β (Aβ) variant, N-truncated, purchased from PSL | rose slightly in intensity | – | unstructured in the monomeric state | behaved like vehicle controls and learned well | dose-dependent reduction in cell viability | – | only toxic at 10 μM | not | monomers, dimers but no other oligomers | clumps of fibrillar aggregates
Aβ4-40: amyloid β (Aβ) variant, N-truncated, purchased from PSL | around 5% | – | unstructured in the monomeric state | significantly reduced | dose-dependent reduction in cell viability | – | – | not | monomers, dimers but no other oligomers | clumps of fibrillar aggregates
